Data from patent publication US20220033508A1 (ADC THERAPEUTICS, published 2022).

T1: Recombinant human extracellular domain of IL13RA2-6His (27-343) (human, UniProt Q14627 27-343)
T1 construct: also called Human IL13RA2-6His; human IL13Rα2
T1 sequence: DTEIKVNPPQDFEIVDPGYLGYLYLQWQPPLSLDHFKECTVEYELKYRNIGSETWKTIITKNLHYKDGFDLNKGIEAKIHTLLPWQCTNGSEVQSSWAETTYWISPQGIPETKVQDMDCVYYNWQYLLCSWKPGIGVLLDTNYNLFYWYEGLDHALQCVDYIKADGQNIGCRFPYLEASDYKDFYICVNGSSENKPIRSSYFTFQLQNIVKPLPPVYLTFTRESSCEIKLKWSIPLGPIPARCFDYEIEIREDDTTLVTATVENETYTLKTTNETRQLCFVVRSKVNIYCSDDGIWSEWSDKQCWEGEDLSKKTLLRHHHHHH

T2: IL13RA2 on NCI-H1299 cells (human, UniProt Q14627)
T2 construct: cell-surface protein on NCI-H1299 cells; Cell-borne form of the target; It is kept apart from m1, which is the recombinant His-tagged extracellular domain; The sheet's title names the antibodies 'anti-IL13RA2 IgG' and the cells 'NCI-H1299 cells'; also called IL13Rα2; Interleukin-13 receptor subunit alpha-2
T2 sequence (receptor chain, looked up): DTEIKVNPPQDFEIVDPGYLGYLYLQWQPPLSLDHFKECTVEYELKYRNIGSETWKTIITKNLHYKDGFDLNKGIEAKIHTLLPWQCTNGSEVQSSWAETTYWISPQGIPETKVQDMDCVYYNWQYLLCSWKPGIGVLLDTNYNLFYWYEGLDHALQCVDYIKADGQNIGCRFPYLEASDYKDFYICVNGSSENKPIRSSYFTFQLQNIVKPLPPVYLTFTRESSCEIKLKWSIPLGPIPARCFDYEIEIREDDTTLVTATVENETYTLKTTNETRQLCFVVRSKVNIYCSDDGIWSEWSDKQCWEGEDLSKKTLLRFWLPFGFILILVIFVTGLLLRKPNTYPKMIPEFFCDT


Assays:
[1] = target: T1, Recombinant human extracellular domain …; assay: ELISA on coated IL13RA2-6His; antibody kept 8 days, column headed 'EC50 4° C.'
Procedure: (§1) Recombinant human extracellular domain of IL13RA2-6His (27-343) was obtained from Sino biological (Ref 10350-H08H). 50 μl of 1 μg/ml of human IL13RA2 in PBS was coated overnight at 4° C. on MaxiSorp ELISA plates. The following morning, the plate is washed with PBS/Tween20 0.02%. Each well has 200 μl of Superblock blocking buffer added and incubated at room temperature for 1 hour in an orbital shaker at 120 rpm. A dilution series of each antibody was prepared, with dilutions of each antibody variant in PBS/Tween20 0.02%. The antibodies are added to blocked antigen coated plates and incubated for 1 hour at room temperature with 120 rpm shaking on an orbital shaker. Plates are then washed 3-times with 200 μl of PBS/Tween20 0.02% and 75 μl of secondary antibody (Mouse anti-human-HRP diluted 1 in 4000 in PBS/Tween20 0.02%) is added to the wells and incubated for 1 hour at room temperature with 120 rpm shaking on an orbital shaker. Plates are then washed 3-times with 200 μl of PBS/Tween20 0.02%. To develop the ELISA, 75 μl of TMB-Turbo substrate is added to the wells and incubated at room temperature with 120 rpm shaking on an orbital shaker till a blue colour develops, the reaction is then stopped with the addition of 75 μl of 0.6 N HCl. Plates are read on the Envision at […] and curves are analysed using GraphPad prism software
(§2) Binding of the variants listed in Table 3 to IL13Rα2 was also assessed by ELISA following incubation at 4° C. or 45° C. for 8 days. […] These binding data also indicate that the humanised variants VHAback/VKA and VHA3/VKA2 have improved stability properties as compared to the chimeric Clone 47.

[2] = target: T1, Recombinant human extracellular domain …; assay: ELISA on plate-coated human IL13RA2-6His, anti-human-HRP detection
Procedure: as §1

[3] = target: T2, IL13RA2 on NCI-H1299 cells; assay: flow cytometry on NCI-H1299 cells, Alexa Fluor 488 anti-human IgG detection
Procedure: NCI-H1299 cells were diluted to 2×10⁶ cells/mL in assay buffer (0.1% BSA/0.1% Sodium Azide in PBS) and 50 μL added per well to a 96-well-plate. The HuCL47 and Clone 47 antibodies were diluted to a top concentration of 40 μg/ml (266 nM) of and diluted 1:4 for 7 dilutions as well as buffer only. 50 μL of the antibody were added to 50 μL of cells to give a concentration of 20 μg/ml. The plate was incubated for 1 hour at room temperature, after which the plate was centrifuged and washed three times. A Goat F(ab′)2 Anti-Human IgG Alexa Fluor 488-conjugated antibody was used (Life Technologies Cat. No. H10120) at a 1 in 250 dilution for detection in assay buffer, 50 μL added to cells and after one hour of incubation at room temperature the cells centrifuged and washed as before, fixed with 7.5% formaldehyde and analysed on the Flow cytometer, with data analysis carried out using FlowJo.
Chimeric clone 47 and HuCL47 were compared in terms of their: binding to NCI-H1299 Cells by standard FACS analysis using NCI-H1299 cells and unmodified purified antibodies. In vitro cytotoxicity analysis was performed on both A375 and NCI-1299 cells, using a pyrollobenzodiazepine dimer (PBD) warhead conjugated to chimeric clone 47 and HuCL47.

[4] = target: T1, Recombinant human extracellular domain …; assay: ELISA on coated IL13RA2-6His; antibody kept 8 days, column headed 'EC50 45° C.'
Procedure: as §1, §2

[5] = target: T1, Recombinant human extracellular domain …; assay: Biacore (SPR), IL13RA2-6His on the sensor, bivalent antibody in solution
Text: (§3) Biacore analysis using Human IL13RA2-6His coated sensor was used to calculate apparent affinity constants of the Clone 47 variants. A dilution series of the antibody variants were applied to the IL13RA2 sensor surface for 600 seconds […] to calculate the association constant Ka and buffer (HBS-EP+) was then applied for 1800 seconds to calculate the dissociation constant Kd. The ratio of the two constants will provide an apparent KD as the bivalency of the antibody will affect the binding kinetics.
(§4) Binding affinity of a chimeric (Ch) Clone 47 and select humanised variants to human IL13Rα2 was measured on Biacore.

[6] = target: T1, Recombinant human extracellular domain …; assay: Biacore (SPR), apparent KD, IL13RA2-6His on the sensor, bivalent antibody in solution
Text: as §3, §4

Row | Binder | EC50 [1] [µg/mL] | EC50 (read off the curve) [2] [nM] | EC50 (read off the curve) [3] [µg/mL] | EC50 [4] [µg/mL] | koff [5] [s⁻¹] | kon [5] [M⁻¹ s⁻¹] | Kd [6] [nM]
1 | Clone 47 VHA / Clone 47 VKA (HuCL47) (antibody, V domains shown, Expressed as IgG in Expi293 cells; also called VHA/VKA; VHANKA) VH: QVQLVQSGAEVKKPGASVKVSCKASGYTFSNYLMNWVRQAPGQGLEWMGRIDPYDGDIDYNQNFKDRVTITRDTSASTAYMELSSLRSEDTAVYYCARGYGTAYGVDYWGQGTSVTVSS VL: EIVLTQSPATLSLSPGERATLSCRASESVDNYGISFMNWYQQKPGQAPRLLIYAASRQGSGIPDRFSGSGSGTDFTLTISRLEPEDFAVYYCQQSKEVPWTFGGGTKLEIK | 0.0178 | ~0.05 | ~0.04 | 0.0184 | 1.12e-05 | 112000 | 0.1
2 | Clone 47 VHA / Clone 47 VKA2 (antibody, V domains shown, Expressed as IgG in Expi293 cells; also called VHA/VKA2) VH: QVQLVQSGAEVKKPGASVKVSCKASGYTFSNYLMNWVRQAPGQGLEWMGRIDPYDGDIDYNQNFKDRVTITRDTSASTAYMELSSLRSEDTAVYYCARGYGTAYGVDYWGQGTSVTVSS VL: EIVLTQSPATLSLSPGERATLSCRASESVDNYGISFMNWYQQKPGQAPRLLIYAASRQGSGIPDRFSGSGSGTDFTLTISRLEPEDFAVYFCQQSKEVPWTFGGGTKLEIK | 0.148 | – | – | 0.0204 | 8.2e-06 | 131000 | 0.06
3 | Clone 47 VHA / Clone 47 VKA1 (antibody, V domains shown, Expressed as IgG in Expi293 cells; also called VHA/VKA1) VH: QVQLVQSGAEVKKPGASVKVSCKASGYTFSNYLMNWVRQAPGQGLEWMGRIDPYDGDIDYNQNFKDRVTITRDTSASTAYMELSSLRSEDTAVYYCARGYGTAYGVDYWGQGTSVTVSS VL: EIVLTQSPATLSLSPGERATLSCRASESVDNYGISFMNWFQQKPGQAPRLLIYAASRQGSGIPDRFSGSGSGTDFTLTISRLEPEDFAVYYCQQSKEVPWTFGGGTKLEIK | 0.0581 | – | – | 0.0123 | 2.65e-05 | 124000 | 0.21
4 | Clone 47 VHA3 / Clone 47 VKA2 (antibody, V domains shown, Expressed as IgG in Expi293 cells; also called VHA3/VKA2) VH: QVQLVQSGAEVKKPGASVKVSCKASGYTFSNYLMNWVRQAPGQGLEWMGRIDPYDGDIDYNQNFKDRVTITRDKSASTAYMELSSLRSEDTAVYYCARGYGTAYGVDYWGQGTSVTVSS VL: EIVLTQSPATLSLSPGERATLSCRASESVDNYGISFMNWYQQKPGQAPRLLIYAASRQGSGIPDRFSGSGSGTDFTLTISRLEPEDFAVYFCQQSKEVPWTFGGGTKLEIK | 0.0258 | – | – | 0.0123 | – | – | –

The next lines start with the values.

Row | EC50 [1] [µg/mL] | EC50 (read off the curve) [2] [nM] | EC50 (read off the curve) [3] [µg/mL] | EC50 [4] [µg/mL] | koff [5] [s⁻¹] | kon [5] [M⁻¹ s⁻¹] | Kd [6] [nM] | Binder
5 | 0.0777 | ~0.04 | ~0.04 | 0.0168 | 6.58e-05 | 125000 | 0.53 | chimeric (Ch) Clone 47 (antibody, V domains shown, Chimeric antibody with the murine Clone 47 variable domains; also called chimeric Clone 47) VH: QVQLQQPGAELVRPGASVKLSCKASGYTFSNYLMNWVKQRPEQDLDWIGRIDPYDGDIDYNQNFKDKAILTVDKSSSTAYMQLSSLTSEDSAVYYCARGYGTAYGVDYWGQGTSVTVSS VL: not shown
6 | 1.01 | – | – | 0.0128 | – | – | – | Clone 47 VHAback / Clone 47 VKA1 (antibody, V domains shown, Expressed as IgG in Expi293 cells; also called VHAback/VKA1) VH: QVQLVQSGAEVKKPGASVKVSCKASGYTFSNYLMNWVRQAPGQGLEWIGRIDPYDGDIDYNQNFKDRATLTVDKSASTAYMELSSLRSEDTAVYYCARGYGTAYGVDYWGQGTSVTVSS VL: EIVLTQSPATLSLSPGERATLSCRASESVDNYGISFMNWFQQKPGQAPRLLIYAASRQGSGIPDRFSGSGSGTDFTLTISRLEPEDFAVYYCQQSKEVPWTFGGGTKLEIK
7 | 0.0456 | – | – | 0.0164 | 5.3e-06 | 115000 | 0.05 | Clone 47 VHAback / Clone 47 VKA (antibody, V domains shown, Expressed as IgG in Expi293 cells; also called VHAback/VKA) VH: QVQLVQSGAEVKKPGASVKVSCKASGYTFSNYLMNWVRQAPGQGLEWIGRIDPYDGDIDYNQNFKDRATLTVDKSASTAYMELSSLRSEDTAVYYCARGYGTAYGVDYWGQGTSVTVSS VL: EIVLTQSPATLSLSPGERATLSCRASESVDNYGISFMNWYQQKPGQAPRLLIYAASRQGSGIPDRFSGSGSGTDFTLTISRLEPEDFAVYYCQQSKEVPWTFGGGTKLEIK
